According to publication PMC4699637, “Papillomavirus-Associated Tumor Formation Critically Depends on c-Fos Expression Induced by Viral Protein E2 and Bromodomain Protein Brd4”:

B1: dAP CRPV URR mut (mdAP) (dsDNA)
DNA 1: GCATGCGACATATGTTACAC
DNA 2: GTGTAACATATGTCGCATGC
B2: dAP CRPV URR WT (dsDNA)
DNA 1: GCATGCGATGACACATTACAC
DNA 2: GTGTAATGTGTCATCGCATGC

Tests used:
[1] = biological target: T1, c-Jun (UniProt P05412 1-331); test: competition; homodimer; 100-fold excess unlabeled vs N1; conditions: protein: recombinant; chain copies: 2; blunt
T1 sequence (P05412 whole entry): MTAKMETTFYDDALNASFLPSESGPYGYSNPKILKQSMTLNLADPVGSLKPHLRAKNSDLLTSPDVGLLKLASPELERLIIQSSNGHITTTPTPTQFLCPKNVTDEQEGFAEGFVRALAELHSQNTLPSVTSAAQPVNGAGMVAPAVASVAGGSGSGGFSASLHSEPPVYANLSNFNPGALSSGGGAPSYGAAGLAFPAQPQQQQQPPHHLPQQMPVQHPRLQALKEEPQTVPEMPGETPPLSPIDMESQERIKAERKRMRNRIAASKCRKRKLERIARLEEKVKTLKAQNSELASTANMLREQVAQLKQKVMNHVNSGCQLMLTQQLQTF

[2] = biological target: T1, c-Jun; test: EMSA; homodimer; conditions: protein: recombinant; chain copies: 2; label: 32P; blunt

Binder | binding result [1] | binding result [2]
B1 | no binding | 
B2 |  | binds
